Literature values in article PMC8215388.

Biological target: DnaK (Escherichia coli) (UniProt P0A6Y8)
Experiment: analytical ultracentrifugation and cross-linking

Chain of DnaK (P0A6Y8 2-638): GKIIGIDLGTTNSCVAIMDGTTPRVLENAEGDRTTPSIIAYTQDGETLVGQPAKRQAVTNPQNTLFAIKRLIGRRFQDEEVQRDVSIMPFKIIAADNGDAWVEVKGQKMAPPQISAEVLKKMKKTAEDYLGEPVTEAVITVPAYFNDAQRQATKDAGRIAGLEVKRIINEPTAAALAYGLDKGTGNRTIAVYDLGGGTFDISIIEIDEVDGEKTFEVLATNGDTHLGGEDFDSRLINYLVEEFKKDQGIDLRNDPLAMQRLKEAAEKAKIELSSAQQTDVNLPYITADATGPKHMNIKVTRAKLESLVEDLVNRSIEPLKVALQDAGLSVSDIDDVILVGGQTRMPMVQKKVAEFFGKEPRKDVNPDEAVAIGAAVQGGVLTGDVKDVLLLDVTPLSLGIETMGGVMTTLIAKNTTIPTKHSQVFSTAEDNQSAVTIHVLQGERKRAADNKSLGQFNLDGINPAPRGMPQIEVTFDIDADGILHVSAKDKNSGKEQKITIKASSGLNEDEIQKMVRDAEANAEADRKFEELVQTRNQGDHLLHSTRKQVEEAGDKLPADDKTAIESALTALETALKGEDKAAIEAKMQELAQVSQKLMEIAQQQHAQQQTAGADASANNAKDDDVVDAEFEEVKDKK

DnaK (from UniProt P0A6Y8)
Kd: 200 µM
